{
  "source": "patent US20250304996A1",
  "test_in_all_cases": "cell-based or functional assay",
  "key": {"[1]": {"biological_target": "SARS-CoV-2 S:G614+Δ19aa spike protein (encoded by pGM907, S-LV v02) (SARS-CoV-2) (UniProt P0DTC2)"}, "[2]": {"biological_target": "SARS-CoV-2 S:B.1.1351+Δ19aa spike protein (B.1.351, encoded by pGM970, S-LV v04) (SARS-CoV-2) (UniProt P0DTC2)"}, "[3]": {"biological_target": "SARS-CoV-2 S:B.1.1.7+Δ19aa spike protein (encoded by pGM965, S-LV v04) (SARS-CoV-2) (UniProt P0DTC2)"}},
  "data": [
    {"substance": "MM43 neutralising antibody (mouse IgG1, SARS-CoV-2 S neutralising antibody, Sino Biological, Catalogue No. 40591-MM43)", "values": [
      {"measurement": "MM43 IC50 (ug/mL), neutralisation of S-LV transduction", "setting": "[1]", "value": 0.8, "unit": "µg/mL"},
      {"measurement": "MM43 IC50 (ug/mL), neutralisation of S-LV transduction", "setting": "[2]", "value": 0.5, "unit": "µg/mL"}
    ]},
    {"substance": "R001 neutralising antibody (rabbit IgG, SARS-CoV-2 S neutralising antibody, Sino Biological, Catalogue No. 40592-R001)", "values": [
      {"measurement": "R001 IC50 (ug/mL), neutralisation of S-LV transduction", "setting": "[1]", "value": 0.06, "unit": "µg/mL"},
      {"measurement": "R001 IC50 (ug/mL), neutralisation of S-LV transduction", "setting": "[3]", "value": 0.32, "unit": "µg/mL"}
    ]}
  ]
}
